Test results taken from US20230235048A1 (PROTHENA BIOSCIENCES, published 2023).

T1: extracellular domain (ECD) of recombinant human Sortilin with a C-terminal HIS tag (ECD-huSortilin-HIS) (human, UniProt Q99523 78-755)
T1 construct: Bought (R&D Systems); also called human sortilin-ECD; not shown: C-terminal HIS tag
T1 sequence: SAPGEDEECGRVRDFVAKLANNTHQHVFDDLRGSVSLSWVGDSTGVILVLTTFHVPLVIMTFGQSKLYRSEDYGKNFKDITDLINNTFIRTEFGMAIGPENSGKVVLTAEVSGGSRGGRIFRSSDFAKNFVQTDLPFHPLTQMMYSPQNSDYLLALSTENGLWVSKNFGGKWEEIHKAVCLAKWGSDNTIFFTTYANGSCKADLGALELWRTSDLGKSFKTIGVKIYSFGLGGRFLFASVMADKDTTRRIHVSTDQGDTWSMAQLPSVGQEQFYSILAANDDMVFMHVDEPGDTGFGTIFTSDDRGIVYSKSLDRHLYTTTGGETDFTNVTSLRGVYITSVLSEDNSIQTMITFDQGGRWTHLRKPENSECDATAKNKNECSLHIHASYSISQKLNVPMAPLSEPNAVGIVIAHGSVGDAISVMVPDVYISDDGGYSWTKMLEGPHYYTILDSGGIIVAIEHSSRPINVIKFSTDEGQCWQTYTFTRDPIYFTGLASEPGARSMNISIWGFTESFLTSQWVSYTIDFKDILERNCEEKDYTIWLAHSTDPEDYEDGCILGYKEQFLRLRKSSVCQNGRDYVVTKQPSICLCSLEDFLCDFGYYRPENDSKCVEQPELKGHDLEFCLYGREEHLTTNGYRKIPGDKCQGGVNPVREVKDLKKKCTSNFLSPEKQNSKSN

T2: human sortilin on the cell surface (recombinant huSortilin on HEK 293 cells; endogenous on U251MG cells) (human, UniProt Q99523 78-831)
T2 construct: whole, on cells; also called huSortilin expressing HEK293 cells; cell surface huSortilin
T2 sequence (looked up): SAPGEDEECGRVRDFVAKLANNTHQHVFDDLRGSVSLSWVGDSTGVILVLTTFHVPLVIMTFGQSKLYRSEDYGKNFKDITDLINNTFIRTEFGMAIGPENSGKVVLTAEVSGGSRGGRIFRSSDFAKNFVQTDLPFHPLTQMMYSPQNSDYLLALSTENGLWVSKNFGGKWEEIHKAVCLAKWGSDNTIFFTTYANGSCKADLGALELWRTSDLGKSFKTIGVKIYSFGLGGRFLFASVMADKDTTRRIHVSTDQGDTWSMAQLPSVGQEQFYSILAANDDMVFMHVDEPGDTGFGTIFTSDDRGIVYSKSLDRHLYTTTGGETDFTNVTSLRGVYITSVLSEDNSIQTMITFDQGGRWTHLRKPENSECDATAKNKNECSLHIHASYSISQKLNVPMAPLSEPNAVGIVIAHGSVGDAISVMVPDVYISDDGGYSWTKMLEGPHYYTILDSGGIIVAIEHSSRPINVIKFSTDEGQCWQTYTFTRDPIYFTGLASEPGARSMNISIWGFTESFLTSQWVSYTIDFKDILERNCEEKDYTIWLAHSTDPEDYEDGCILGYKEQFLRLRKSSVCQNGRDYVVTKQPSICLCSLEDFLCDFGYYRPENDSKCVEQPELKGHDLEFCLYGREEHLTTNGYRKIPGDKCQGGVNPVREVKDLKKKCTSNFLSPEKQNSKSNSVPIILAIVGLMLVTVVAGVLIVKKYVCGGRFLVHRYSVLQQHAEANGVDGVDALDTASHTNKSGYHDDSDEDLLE

T3: sortilin array peptides with the consensus motif RTEFGMAIGP (human, not fully specified; array peptides cyclized via a thioether linkage between a C-terminal cysteine and a modified N-terminus)
T3 construct: Consensus motif of overlapping 7, 10 and 13 amino acid conformational microarray peptides
T3 peptide: RTEFGMAIGP


Tests used:
[1] = target: T1, extracellular domain (ECD) of …; assay: ELISA, Ab binding to hSortilin-ECD
Experimental: Purified anti-huSortilin mAb binding to huSortilin was characterized by ELISA (ELISA protocol as in Example 1) using a 12 point titration of mAb concentration. mAbs were diluted 2-fold from a starting concentration of 67 nM and then added to ECD-huSortilin-HIS coated plates. Data was analyzed and EC₅₀ (nM) was calculated using graphed Prism. Commercially available goat anti-huSortilin (R&D Biosystems) was used as a positive control. Results are depicted in FIG. 8.

[2] = target: T1, extracellular domain (ECD) of …; assay: blocking ELISA, coated ECD-huSortilin-HIS; blocked ligand huPGRN-Biotin
[3] = target: T1, extracellular domain (ECD) of …; assay: SPR (Biacore T200), mAb captured by anti-mouse antibody on CM5, Sortilin 0.1-300 nM as analyte, global 1:1 fit
Experimental: Analysis was performed using a Biacore T200 to compare the binding affinity of murine anti-huSortilin antibodies to recombinant human Sortilin. Anti-mouse antibody was immobilized on sensor chip CM5 (GE Healthcare Life Sciences) via amine coupling, and mouse antibodies (ligand) were captured to a level to ensure a maximum binding of analyte of 50 RU (approximately 100RU of ligand binding). Various concentrations of Sortilin (ranging from 0.1 nM to 300 nM) were passed over the captured ligand at […] in running buffer (HBS+0.05% P-20, 1 mg/mL BSA) for 180-300s association time and 300-900s dissociation time. Regeneration of the chip surface was accomplished by 2 short injections of 10 mM Glycine-HCl at pH 1.7. Data was blank subtracted to both a sensor not containing ligand and 0 nM analyte concentration. Analysis was performed using a global 1:1 fit with Biacore Insight Evaluation software (v2.0) with bulk refractive index set to zero RU.

[4] = target: T2, human sortilin on the cell surface …; assay: cell-based blocking titration (flow cytometry), huSortilin HEK293 cells; blocked ligand 30 nM huPGRN-Biotin
Experimental: Cells were cultured using standard methods. […] Cells were then washed twice in PBS+2% FBS and incubated for 30 minutes on ice with 50 uL per well 1:200 Steptavidin-APC (BD biosciences) in PBS+2% FBS. Cells were then washed as above and resuspended in 100 uL PBS+2% FBS. Data was acquired using the BD LSR II and analyzed using FlowJo software version 10.6 and Microsoft excel.
The cell-based blocking assay was repeated with the top 12 blocking mAbs using a dose titration from 67 nM to 0.4 nM. Blocking assay was carried out as above. Data was analyzed using FlowJo software version 10.6. and GraphPad Prism software.

[5] = target: T1, extracellular domain (ECD) of …; assay: blocking ELISA, coated ECD-huSortilin-HIS, purified mAb; blocked ligand huPGRN-Biotin
[6] = target: T3, sortilin array peptides with the …; assay: PEPperMAP conformational (cyclized) peptide microarray, mAb 10-100 ug/mL

EC50 [1] [nM] | % Blocking at 7.4nM mAb [2] [%] | Kd [3] [nM] | % Max blocking at 11nM mAb [4] [%] | IC50 (read off the curve) [5] [nM] | koff [3] [s⁻¹] | kon [3] [M⁻¹ s⁻¹] | binding result [6] | Binder
0.8 | 75 | 6.24 | 48 |  |  |  |  | mouse monoclonal antibody 11M14 (antibody, mouse IgG1, V domains shown, mouse IgG1, kappa; also called ms11M14) VH: EVQLVESGGDLVKPGGSLKLSCAASGFTFNIYGMSWVRQTPDKRLEWVATISSGGIYTYYPDILKGRFTISRDNAKNTLYLQMSSLKSEDTAMYYCARHPGGAMDYWGQGTSVTVSS VL: DIQMTQSPASLSVSVGETVTITCRVSENIYSNLAWYQQKQGKSPHLLVYAATNLADGVPSRFSGSGSGTQYSLKINSLQSEDFGSYYCQHFWGTPPWTFGGGTKLEIK
0.7 | 76 | 2.81 | 41 |  |  |  |  | mouse monoclonal antibody 2F18 (antibody, mouse IgG1, V domains shown, mouse IgG1, kappa) VH: EVQLVESGGDLVKPGGSLKLSCAASGFTFNIYGMSWVRQTPDKRLEWVATISTGGIYTYYPDSVKGRFTISRDNAKNTLYLQMSSLKSEDTAMYYCARHPVGALDYWGQGTSVTVSS VL: DIQVTQSPASLSVSVGETVTITCRASENIYSNLAWYQQKQGKSPHLLVYTATTLADGVPSRFSGSGSGTQYSLKINSLQSEDFGSYYCQHFWGTPPWTFGGGTKLEIK
1 | 79 | 11.8 | 64 |  |  |  |  | mouse monoclonal antibody 2C14 (antibody, mouse IgG1, V domains shown, mouse IgG1, kappa) VH: EVQLVESGGDLVKPGGSLKLSCAASGFTFNTHGMSWVRQTPDKSLEWVATISTGGFYTSYPDSVKGRFTISRDNAKNTLFLQMSSLKSEDTAMYYCAKSSSHWYFDVWGTGTTVTVSS VL: DILMTQSPSSMSVSLGDTVSITCHASQGISSNIGWLQQKPGKSFKGLIYHGTNLEDGVPSRFSGSGSGADYSLTISSLEYEDFADYYCVQYAHFPYTFGGGTKLEIK
1.1 | 76 | 1.59 | 54 |  |  |  |  | mouse monoclonal antibody 5E20 (antibody, mouse IgG1, V domains shown, mouse IgG1, kappa; also called ms5E20; ms5E20new) VH: EVQLVESGGDLVKPGGSLKLSCAAPGFTFSTYGMSWVRQTPDKRLEWVAIISSGGSYTYYSDTVKGRFTISRDNAKNTLYLQMSSLKSEDTAMYYCSRSSSHWYFDVWGTGTTVTVSS VL: DILMTQSPSSMSVSLGDTVSITCHASQGISSNIGWLQQKPGKSFKGLIYHGTNLKDGVPSRFSGSGSGADFSLTISSLESEDFADYFCVQYAQFPYTFGGGTKLEKR
3.8 | 51 | 1.02 | 33 | ~5 |  |  |  | mouse monoclonal antibody 6B15 (antibody, mouse IgG1, V domains shown, mouse IgG1, kappa) VH: EVQLVESGGDLVKPGGSLKLSCAAPGFTFSTYGMSWVRQTPDKRLEWVAIISSGGSYTYYSDTVKGRFTISRDNAKNTLNLQMSSLKSEDTAMYFCSRSSSHWYFDVWGTGTTVTVSS VL: DILMTQFPSSMSVSLGDTVSITCHASQGISSNIGWLQQKPGKSFKGLIYHGTNLKDGVPSRFSGSGSGTDFSLTISSLESEDFADYYCVQYAQFPYTFGGGTKLEKR
2.7 | 27 | 2.29 | 0 |  | 0.000411 | 179000 |  | mouse monoclonal antibody 5M13 (antibody, mouse IgG1, V domains shown, mouse IgG1, kappa) VH: DVQLQESGPGLVKPSQSLSLTCTVTGYSITSDYAWNWIRQFPGNKLEWMGYISSSGSTSYNPSLKSRISVTRDTSKNQFFLQLNFVTAEDTATYYCAFVTTTMDYWGQGTSVTVSS VL: DVVMTQTPLSLPVSLGDQASISCRSSQSLVHSNGNTYLHWYLQKPGQSPKLLIYTVSNRFSGVPDRFSGSGSGTDFTLKISRVEAEDLGVYFCSQSTHVPFTFGSGTKLEIK
0.4 | 89 | 4.56 | 66 |  |  |  | binds | mouse monoclonal antibody 8H24 (antibody, mouse IgG2c, V domains shown, mouse IgG2c, kappa; also called mu8H24; m8H24) VH: QAYLQQSGTELVRPGASVKMSCKASGYTFTSYSMHWVKQTPRQGLEWIGAIYPGNDATSYNQKFKGKATLTVDKSSSTAYMQLSSLTSEDSAVYFCAREGYYGSSFEAWFASWGQGTLVTVSA VL: DVLMTQTPLSLPVSLGDQASISCRSSQSIVHSNGNTYLEWYLQKPGQSPKLLIYKVSNRFSGVPDRFSGSGSGTDFTLKISRVEAEDLGVYYCFQGSHVLPTFGGGTKLEIK
0.8 | 65 |  | 45 |  |  |  |  | mouse monoclonal antibody 9N18 (antibody, mouse IgG2b, V domains shown, mouse IgG2b, kappa) VH: EIQLQQSGPELVKPGASVKISCKASGYSFTGYYMNWVKQSPEKSLEWIGEINPITGGTTYNQNFKAKATLTVDKSSSTAYLQLRSLTSEDSAVYYCASDYFGSNSWFAYWGQGTLVTVSA VL: DVLMTQTPLSLPVSLGDQASISCRSSQSIVHRNGNTYLEWYLQKPGQSPKLLIYKVSNRFSGVPDRFSGSGSGTDFTLRISRVEAEDLGVYYCFQGSHVPYTFGGGTKLEIK
0.8 | 67 | 2.21 | 40 |  |  |  |  | mouse monoclonal antibody 2P22 (antibody, mouse IgG2b, V domains shown, mouse IgG2b, kappa) VH: EVQLVESGGDLVKPGGSLKLSCAASGFTFSIYGMSWVRQTPDKKLEWVAAISSGGIYTYYPDSVKGRFTISRDNAKNTLYLQMSSLKSADTAMYYCTRNDYDWFAYWGQGTLVTVSA VL: DIQMTQSPSSLSASLGERVSLTCRASQDIGSSLNWLQQEPDGTIKRLIYATSSLDSGVPKRFSGSRSGSDYSLTISSLESEDFVDYYCLQYASSPYTFGGGTKLEIK
